In patent US12351605B2, “Optically controllable FGFR stimulation using wireless controlled cellular lighting system” (THE JOHNS HOPKINS UNIVERSITY, priority 2020, dated 2025):
Read-outs that look alike come from different tables or passages of the source.

What was measured:
FGF signaling pathway = assay: Western blot of ERK1/2 and MEK phosphorylation in Opto-FGFR hESCs; type: cell-based, human; details: 10 ng/mL FGF2 after 24 h FGF2 starvation; 15 min intervals up to 120 min
Method: Western blot analysis. The phosphorylation status of MEK and ERK1/2 were determined by Western blot analysis. The cells were starved from FGF2 protein for 24 h, and then exposed to either FGF2 protein or blue light illumination. One μg aliquots of whole cell lysates were loaded onto 4-20% gradient SDS-PAGE gels and then transferred to nitrocellulose membranes (Bio-Rad) using the Trans-Blot® Turbo™ Transfer System (Bio-Rad). The detection of phosphorylated ERK1/2 proteins (42 and 44 kDa) was performed using a phospho-ERK1/2 antibody (Cell Signaling), total ERK1/2 expression level was determined using a total […] antibody (Cell Signaling), detection of pMEK protein (45 kDa) was performed using a pMEK1/2 antibody (Cell Signaling), and total MEK expression level was determined using a total MEK1/2 antibody (Cell Signaling). The expression levels are quantified by normalizing to GAPDH expression (Cell Signaling). Following the primary antibody incubation, the membranes were incubated with the appropriate secondary antibodies and subsequently visualized with an ECL kit (Pierce).
Generation of a light-inducible FGF signaling system. […]

[1] = daily feeding condition, cited from earlier work

In the case of “FGF2: recombinant fibroblast growth factor 2 protein, medium component for maintaining pluripotency of PSCs”, the “activation of FGF signaling (phosphorylation of ERK1/2 and MEK)” value (FGF signaling pathway) is given as “activated FGF signaling”, the “decrease of FGF2 protein concentration” value ([1]; 4 h after the initial feeding) is given as “approximately 40%” and the “decrease of FGF2 protein concentration” value ([1]; 24 h after the initial feeding) is given as “approximately 10%”.
